# Literature values in paper PMC5268426.
# Like-named read-outs stand apart in the source and are kept apart here.
# Columns and labels:
# Prostasin (Homo sapiens) = Prostasin (Homo sapiens) (UniProt Q16651)
# [1] = molecular target: Pancreatic trypsin inhibitor (PTI) (Bos taurus) (UniProt P00974)
# [2] = molecular target: Pancreatic trypsin inhibitor (PTI) (Bos taurus) (UniProt P00974); remark: listed apart in the source
substance,measurement,setting,value
HAI-2 (from UniProt O43291),Ki,Prostasin (Homo sapiens),5 nM
Trypsin (from UniProt P00760),Kd,[1],0.06 pM
Trypsinogen (from UniProt P00760),Kd,[2],2000 nM
